Results on 16 sequences are retold here after the Immune Epitope Database (IEDB).

In general, Kd refers to the equilibrium constant for the complex coming apart.

A value given as a limit tells only on which side of the number the result lay.

In one assay the target is HLA-A*02:11. The assay is described as follows: IEDB peptide-MHC binding, purified MHC/competitive/fluorescence; filed as Kd, often an IC50 or EC50 that approximates it; ≥ and ≤ were set here for values at or beyond the usual limits of such assays.
The target in assay [1] is HLA-A*02:06. The description is as above.
Assay [2] has as its target HLA-A*02:03. Described as above.
For a further assay, the target named is HLA-A*02:19. Described as above.
Assay [3] addresses HLA-A*02:01. The description is as above.
The next assay deals with HLA-A*69:01. Described as above.
The target in a further assay is HLA-A*02:16. Described as above.
Another assay deals with HLA-A*02:12. The description is as above.
Another assay has as its target HLA-A*02:17. The assay is described as follows: IEDB peptide-MHC binding, purified MHC/competitive/radioactivity; filed as Kd, often an IC50 or EC50 that approximates it; ≥ and ≤ were set here for values at or beyond the usual limits of such assays.
The target of assay [4] is HLA-A*02:06. Described as above.
Assay [5] addresses HLA-A*02:03. Described as above.
Assay [6] has as its target HLA-A*02:01. Described as above.
A further assay concerns the target HLA-B*08:01. The description is as above. The settings on record: source organism: Dengue virus 1 Brazil/97-11/1997.
The next assay deals with HLA-A*29:02. The assay is described as follows: IEDB peptide-MHC binding, purified MHC/competitive/fluorescence; filed as Kd, often an IC50 or EC50 that approximates it; ≥ and ≤ were set here for values at or beyond the usual limits of such assays.
Another assay has as its target HLA-C*15:02. The assay is described as follows: IEDB peptide-MHC binding, purified MHC/direct/fluorescence; filed as Kd, often an IC50 or EC50 that approximates it; ≥ and ≤ were set here for values at or beyond the usual limits of such assays.
The next assay concerns the target HLA-C*12:03. The description is as above. To be noted: source organism: Bacillus anthracis str. A0488.
The next assay addresses HLA-A*32:15. The assay is described as follows: IEDB peptide-MHC binding, purified MHC/competitive/fluorescence; filed as Kd, often an IC50 or EC50 that approximates it; ≥ and ≤ were set here for values at or beyond the usual limits of such assays. To be noted: source organism: West Nile virus.
Another assay deals with HLA-A*68:23. The assay is described as above. To be noted: source organism: West Nile virus.
The next assay concerns the target HLA-B*15:42. The description is as above. The settings on record: source organism: West Nile virus.
The target in another assay is HLA-B*45:06. The description is as above. To be noted: source organism: West Nile virus.
The next assay has as its target HLA-A*32:07. The description is as above. The settings on record: source organism: West Nile virus.
A further assay deals with HLA-B*83:01. Described as above. To be noted: source organism: West Nile virus.
The target of the next assay is HLA-A*26:01. The description is as above.
The next assay addresses HLA-B*18:01. The assay is described as above.
Another assay has as its target HLA-B*57:01. The description is as above.
The target of a further assay is HLA-A*31:01. The assay is described as above. To be noted: source organism: Escherichia coli 536.
In a further assay the target is HLA-B*39:01. The assay is described as above.
A further assay concerns the target HLA-A*24:03. Described as above.
In the next assay the target is HLA-A*68:02. The description is as above.
A further assay has as its target HLA-B*46:01. The assay is described as above.
For a further assay, the target named is HLA-B*15:01. The description is as above.
The next assay concerns the target HLA-B*51:01. The assay is described as above.
In a further assay the target is HLA-A*03:01. The assay is described as above. To be noted: source organism: Cryptosporidium parvum Iowa II.
The target of the next assay is HLA-B*27:03. The assay is described as above.
The target in the next assay is HLA-B*15:17. The assay is described as above. To be noted: source organism: Cryptosporidium parvum Iowa II.
Setting [7] is: source organism: Human immunodeficiency virus 1.
The mark [8] stands for this setting: source organism: Dengue virus 1 Singapore/S275/1990.
The mark [9] stands for this setting: source organism: Dengue virus 1 Brazil/97-11/1997.
Where [10] appears, read: source organism: Bacillus anthracis str. A0488.
Setting [11] is: source organism: Dengue virus 4 Philippines/H241/1956.
Setting [12] is: source organism: Escherichia coli 536.
Where [13] appears, read: source organism: Dengue virus 2 Jamaica/1409/1983.
Where [14] appears, read: source organism: Cryptosporidium parvum Iowa II.
Where [15] appears, read: source organism: Human herpesvirus 5 strain Towne.
Setting [16] is: source organism: Entamoeba histolytica HM-1:IMSS.
Setting [17] is: source organism: Dengue virus 3 China/80-2/1980.

Consider DLADQLIHL, for which the Kd with HLA-A*02:11 (setting [7]) was 33 nM; in the assay with HLA-A*02:06 [1] (setting [7]), 59 nM; with HLA-A*02:03 [2] (setting [7]), 136 nM; with HLA-A*02:19 (setting [7]), 42.5 nM; with HLA-A*02:01 [3] (setting [7]), 178 nM; with HLA-A*69:01 (setting [7]) it was 19.8 nM. In addition, the Kd with HLA-A*02:16 (setting [7]) is 55.5 nM; with HLA-A*02:12 (setting [7]) it was 476 nM.

Consider LLMRTTWAL, for which the Kd in the assay with HLA-A*02:17 (setting [8]) worked out at 4.89 nM; with HLA-A*02:06 [4] (setting [9]) it was 1.43 nM; with HLA-A*02:03 [5] (setting [9]) it was 0.817 nM; with HLA-A*02:01 [6] (setting [8]) it was 21.4 nM; in the assay with HLA-B*08:01 it was 20.7 nM.

Turning to FVFGIPLLV, the Kd was 0.2 nM with HLA-A*29:02 (setting [10]), 41 nM with HLA-C*15:02 (setting [10]) and no more than 1 nM in the assay with HLA-C*12:03.

For ETTNWLWTF, the Kd in the assay with HLA-A*32:15 is 18.5 nM; with HLA-A*68:23 it was 2.2 nM; with HLA-B*15:42, no less than 5000 nM; in the assay with HLA-B*45:06, no less than 5000 nM; with HLA-A*32:07, 1.7 nM; with HLA-B*83:01, no less than 5000 nM.

With YMPTVIEEL, the Kd with HLA-A*02:17 (setting [11]) stood at 5.23 nM; with HLA-A*02:06 [4] (setting [11]), 46.9 nM; with HLA-A*02:03 [5] (setting [11]), 91.9 nM; with HLA-A*02:01 [6] (setting [11]), 39.6 nM.

Take VTNRHEEKF: the Kd with HLA-C*15:02 (source organism: human gammaherpesvirus 4) is 4270 nM.

With RVGIYFGMK, the Kd with HLA-A*26:01 (setting [12]) was no less than 20000 nM; with HLA-B*18:01 (setting [12]), no less than 20000 nM; in the assay with HLA-B*57:01 (setting [12]) it was no less than 20000 nM; with HLA-A*02:11 (setting [12]), no less than 20000 nM; with HLA-A*31:01 it was 45.6 nM; with HLA-B*39:01 (setting [12]) it was no less than 20000 nM. In addition, the Kd with HLA-A*24:03 (setting [12]), with HLA-A*68:02 (setting [12]), with HLA-A*02:03 [2] (setting [12]), in the assay with HLA-A*02:19 (setting [12]), with HLA-B*46:01 (setting [12]) and with HLA-B*15:01 (setting [12]) was no less than 20000 nM in each case. Besides, the Kd in the assay with HLA-A*02:01 [3] (setting [12]), in the assay with HLA-B*51:01 (setting [12]), in the assay with HLA-A*69:01 (setting [12]), with HLA-A*02:16 (setting [12]) and with HLA-A*02:12 (setting [12]) was no less than 20000 nM in each case.

Take TLLLLTLLAT: the Kd came out at 1320 nM with HLA-A*02:17 (setting [13]) and 141 nM with HLA-A*02:01 [6] (setting [13]).

VYWENEVSI: the Kd with HLA-A*03:01, with HLA-A*26:01 (setting [14]), in the assay with HLA-B*18:01 (setting [14]), in the assay with HLA-B*57:01 (setting [14]), in the assay with HLA-A*02:11 (setting [14]) and with HLA-B*27:03 (setting [14]) was no less than 20000 nM each time. Moreover, the Kd in the assay with HLA-B*39:01 (setting [14]), with HLA-A*68:02 (setting [14]), with HLA-A*02:03 [2] (setting [14]), in the assay with HLA-A*02:19 (setting [14]), with HLA-B*15:17 and with HLA-B*46:01 (setting [14]) was no less than 20000 nM each time. The Kd with HLA-B*15:01 (setting [14]), with HLA-A*02:01 [3] (setting [14]), in the assay with HLA-B*51:01 (setting [14]), with HLA-A*69:01 (setting [14]), in the assay with HLA-A*29:02 (setting [14]) and with HLA-A*02:16 (setting [14]) was no less than 20000 nM in each case. Besides, the Kd with HLA-A*02:12 (setting [14]) was determined as 286 nM.

Consider NLVPMVATV, for which the Kd was no more than 0.1 nM with HLA-A*02:11 (setting [15]); no more than 0.1 nM with HLA-A*02:06 [1] (setting [15]); 0.6 nM with HLA-A*02:19 (setting [15]); 75 nM with HLA-A*69:01 (setting [15]); 0.543 nM with HLA-A*02:16 (setting [15]); 1.55 nM in the assay with HLA-A*02:12 (setting [15]).

As for KLSMGLIAI, the Kd worked out at 2480 nM with HLA-A*02:17 (setting [11]), 31.4 nM with HLA-A*02:03 [5] (setting [11]) and 12.4 nM in the assay with HLA-A*02:01 [6] (setting [11]).

Turning to KTFEWGVFY, the Kd with HLA-A*26:01 (setting [16]), with HLA-B*27:03 (setting [16]), with HLA-B*39:01 (setting [16]), in the assay with HLA-A*24:03 (setting [16]), with HLA-A*68:02 (setting [16]) and with HLA-A*02:03 [2] (setting [16]) was no less than 20000 nM in each case. The Kd in the assay with HLA-A*02:19 (setting [16]) was no less than 20000 nM; with HLA-A*69:01 (setting [16]), no less than 20000 nM; with HLA-A*29:02 (setting [16]) it was 0.5 nM; with HLA-A*02:16 (setting [16]), no less than 20000 nM; with HLA-A*02:12 (setting [16]) it was no less than 20000 nM.

On to LIFILLTAV, for which the equilibrium dissociation constant (Kd) in the assay with HLA-A*02:17 (setting [13]) worked out at 3590 nM; in the assay with HLA-A*02:06 [4] (setting [13]), 497 nM; with HLA-A*02:03 [5] (setting [13]) it was 56.2 nM; with HLA-A*02:01 [6] (setting [13]), 74.4 nM.

Take KTIPVAMTL: in the assay with HLA-C*15:02 (source organism: Salmonella enterica subsp. enterica serovar Typhimurium str. LT2), the Kd was found to be 15 nM.

For FMTATPPGA, the Kd in the assay with HLA-A*02:17 (setting [11]) stood at 6440 nM; in the assay with HLA-A*02:03 [5] (setting [11]), 152 nM; with HLA-A*02:01 [6] (setting [11]), 49 nM.

LLLGLMILL: the Kd worked out at 110 nM in the assay with HLA-A*02:17 (setting [17]) and 13.6 nM in the assay with HLA-A*02:01 [6] (setting [17]).
